According to publication doi:10.1101/755504 (bioRxiv, 2019):

Biological target: T1, His-D6PK (Arabidopsis thaliana, UniProt Q9FG74 1-498)
T1 sequence (looked up): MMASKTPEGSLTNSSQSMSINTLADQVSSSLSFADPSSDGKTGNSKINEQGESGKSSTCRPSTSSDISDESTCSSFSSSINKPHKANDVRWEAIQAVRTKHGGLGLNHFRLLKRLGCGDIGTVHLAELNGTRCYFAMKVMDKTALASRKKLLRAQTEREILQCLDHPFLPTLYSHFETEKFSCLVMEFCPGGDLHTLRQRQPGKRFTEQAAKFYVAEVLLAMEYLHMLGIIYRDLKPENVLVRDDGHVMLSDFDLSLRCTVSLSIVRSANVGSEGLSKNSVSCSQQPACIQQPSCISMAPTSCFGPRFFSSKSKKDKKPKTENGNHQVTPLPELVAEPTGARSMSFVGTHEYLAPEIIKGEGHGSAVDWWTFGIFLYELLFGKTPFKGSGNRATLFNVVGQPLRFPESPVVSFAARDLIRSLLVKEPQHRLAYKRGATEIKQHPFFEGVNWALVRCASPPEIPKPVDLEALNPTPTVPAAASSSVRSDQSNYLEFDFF
Test: pull-down

B1: GST-PDK1.1 (enzyme, Arabidopsis thaliana, UniProt Q9XF67 1-491, looked up)
chain: MLAMEKEFDSKLVLQGNSSNGANVSRSKSFSFKAPQENFTSHDFEFGKIYGVGSYSKVVRAKKKETGTVYALKIMDKKFITKENKTAYVKLERIVLDQLEHPGIIKLYFTFQDTSSLYMALESCEGGELFDQITRKGRLSEDEARFYTAEVVDALEYIHSMGLIHRDIKPENLLLTSDGHIKIADFGSVKPMQDSQITVLPNAASDDKACTFVGTAAYVPPEVLNSSPATFGNDLWALGCTLYQMLSGTSPFKDASEWLIFQRIIARDIKFPNHFSEAARDLIDRLLDTEPSRRPGAGSEGYVALKRHPFFNGVDWKNLRSQTPPKLAPDPASQTASPERDDTHGSPWNLTHIGDSLATQNEGHSAPPTSSESSGSITRLASIDSFDSRWQQFLEPGESVLMISAVKKLQKITSKKVQLILTNKPKLIYVDPSKLVVKGNIIWSDNSNDLNVVVTSPSHFKICTPKKVLSFEDAKQRASVWKKAIETLQNR
Question: Does B1 bind?
Answer: binds
